{
  "source": "patent US11324837B2",
  "about": "“Hybrid membrane-coated nanoparticle composites and methods of making and using the same” (Portland State University, priority 2016, dated 2022)",
  "target": "T1, TAMRA-Aβ1-42 (Homo sapiens, UniProt P05067)",
  "T1 construct": "fluorophore-labeled Aβ (TAMRA-Aβ1-42)",
  "T1 sequence (P05067 672-713)": "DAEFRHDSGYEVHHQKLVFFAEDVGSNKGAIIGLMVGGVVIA",
  "experiment": "Fluorescence anisotropy of Aβ binding to AuNP surface",
  "conditions": "intrinsic, free peptide",
  "excerpt": "Fluorescence anisotropy also confirmed Aβ binding to AuNP surface. This technique reports on the change in the molecular rotation of the dye attached to the free TAMRA-Aβ1-42 peptide and when it binds to something larger than itself under polarized light. The steady-state anisotropy (r) is derived from the following equation in which r=(IVV−GIVH)/(IVV+2GIVH), where IVV and IVH are the fluorescence intensities, the subscripts indicate the orientation of the excitation and emission polarizer's, and G=IHV/IHH is the wavelength dependent sensitivity of the instrument. In a typical experiment the intrinsic anisotropy of TAMRA-Aβ1-42 (ravg=0.12) increases in the presence of Au-SOA-PC-HT (ravg=0.35) (FIG. 18). The resulting change in anisotropy (Δr=0.23) is due to a large change in the hydrodynamic radius (size) of the small TAMRA-Aβ1-42 when it binds to the much larger Au-SOA-PC-HT nanoparticles. […] Note that Cu^II pre-incubated with TAMRA-Aβ1-42 when added to Au-SOA-PC-HT has the same 0.11 change in anisotropy (FIG. 18). Possible explanations for the additional increase in r include metal ion reassembly of peptides bound to the membrane or bridging interactions between the Au-SOA-PC-HT-TAMRA-Aβ1-42 species. Alternatively, metals could arrange TAMRA-Aβ1-42 within the membrane bilayer to slow its molecular rotation. […]",
  "data": [
    {"substance": "TAMRA-Aβ1-42: fluorophore-labeled Aβ", "values": [
      {"measurement": "steady-state anisotropy ravg of TAMRA-Aβ1-42", "value": 0.12}
    ]}
  ]
}
